Source: publication PMC2709974 (Journal of molecular biology, 2009)
Numbering of substitutions follows the chain as printed. In names and notes the source's numbering stands.

How the values were obtained:
[1] = molecular target: T1, IscR-C92A/C98A/C104A (clusterless) (Escherichia coli, UniProt P0AGK8 1-162, C92A;C98A;C104A); test: competition
T1 sequence: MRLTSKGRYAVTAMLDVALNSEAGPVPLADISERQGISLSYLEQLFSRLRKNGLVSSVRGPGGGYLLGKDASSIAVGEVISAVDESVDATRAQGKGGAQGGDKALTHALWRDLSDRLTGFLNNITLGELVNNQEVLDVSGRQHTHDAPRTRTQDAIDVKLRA

SEC = molecular target: the molecule itself; test: SEC
AUC = molecular target: the molecule itself; test: AUC
[2] = molecular target: T1, IscR-C92A/C98A/C104A (clusterless); test: fluorescence anisotropy
[3] = molecular target: T2, IscR wild-type (as purified, about 60% [2Fe-2S] occupied) (Escherichia coli, UniProt P0AGK8 1-162); test: fluorescence anisotropy
T2 sequence: T1 sequence with A92C, A98C, A104C

[4] = molecular target: T1, IscR-C92A/C98A/C104A (clusterless); test: fluorescence anisotropy; remark: listed apart in the source
[5] = molecular target: T2, IscR wild-type (as purified, about 60% …); test: fluorescence anisotropy; remark: listed apart in the source

B1: hya -44,-42,-41,-40 (dsDNA)
DNA 1: ATAAATCCACACATTGGTTATTGTTTTGTG
DNA 2: CACAAAACAATAACCAATGTGTGGATTTAT
B1 gave an IC50 [1] of 785 nM.

B2: hya -35 (dsDNA)
DNA 1: ATAAATCCACACAGTTTGTATTTTTTTGTG
DNA 2: CACAAAAAAATACAAACTGTGTGGATTTAT
For B2, the IC50 [1] was 505 nM.

B3: Palindrome1-2 (dsDNA)
DNA 1: ATAAATCCATACAGTTTGTATGGATTTGTG
DNA 2: CACAAATCCATACAAACTGTATGGATTTAT
B3 gave an IC50 [1] of roughly 10 nM.

B4: hya -39 (dsDNA)
DNA 1: B2 DNA 1 with T19A, T23G
DNA 2: B2 DNA 2 with A8C, A12T
B4 gave an IC50 [1] of 199 nM.

B5: hya -51 (dsDNA)
DNA 1: B2 DNA 1 with C7G, T23G
DNA 2: B2 DNA 2 with A8C, G24C
For B5, the IC50 [1] was 400 nM.

B6: hya -47 (dsDNA)
DNA 1: B2 DNA 1 with A11T, T23G
DNA 2: B2 DNA 2 with A8C, T20A
B6 showed an IC50 [1] of 190 nM.

B7: hya -50(C to A) (dsDNA)
DNA 1: B2 DNA 1 with C8A, T23G
DNA 2: B2 DNA 2 with A8C, G23T
B7 showed an IC50 [1] of 268 nM.

B8: wild-type IscR (as purified, 35% occupied with [2Fe-2S] cluster) (natural protein, Escherichia coli, UniProt P0AGK8 1-162, looked up)
chain: T1 sequence with A92C, A98C, A104C
B8 was tested, and the “stoichiometry N” value (SEC) was 2.

B9: IscR-C92A/C98A/C104A (natural protein, Escherichia coli, UniProt P0AGK8 1-162, looked up)
chain: T1 sequence
With B9 the “stoichiometry N” value (AUC) was 2.

B10: apo-IscR (generated from wild-type IscR by treatment with 2,2'-dipyridyl) (natural protein, Escherichia coli, UniProt P0AGK8 1-162, looked up)
chain: T1 sequence with A92C, A98C, A104C
For B10, the “stoichiometry N” value (SEC) was 2.

B11: hya -46 (dsDNA)
DNA 1: B2 DNA 1 with C12T, T23G
DNA 2: B2 DNA 2 with A8C, G19A
B11 showed an IC50 [1] of 37 nM.

B12: hya -48(C to T) (dsDNA)
DNA 1: B2 DNA 1 with C10T, T23G
DNA 2: B2 DNA 2 with A8C, G21A
B12 gave an IC50 [1] of 48 nM.

B13: hya -36(T to C) (dsDNA)
DNA 1: B2 DNA 1 with T22C, T23G
DNA 2: B2 DNA 2 with A8C, A9G
Work on B13 yielded an IC50 [1] of 134 nM.

B14: hya -54,-48,-45,-37 (dsDNA)
DNA 1: ATATATCCAGACTGTTTGTAATGTTTTGTG
DNA 2: CACAAAACATTACAAACAGTCTGGATATAT
B14 was tested, and the IC50 [1] was 80 nM.

B15: hya -34/33 (dsDNA)
DNA 1: B2 DNA 1 with T23G, T24A, T25A
DNA 2: B2 DNA 2 with A6T, A7T, A8C
B15 was tested, and the IC50 [1] was 39 nM.

B16: hya -53,-52 (dsDNA)
DNA 1: B2 DNA 1 with A5T, T6C, T23G
DNA 2: B2 DNA 2 with A8C, A25G, T26A
Work on B16 yielded an IC50 [1] of 33 nM.

B17: hyaA competitor (dsDNA)
DNA 1: B2 DNA 1 with T23G
DNA 2: B2 DNA 2 with A8C
B17 showed an IC50 [1] of 29 nM.

B18: hya -32,-30 (dsDNA)
DNA 1: B2 DNA 1 with T23G, T26A, G28C
DNA 2: B2 DNA 2 with C3G, A5T, A8C
B18 gave an IC50 [1] of 18 nM.

B19: hya -31 (dsDNA)
DNA 1: B2 DNA 1 with T23G, T27G
DNA 2: B2 DNA 2 with A4C, A8C
In the case of B19, the IC50 [1] is reported as 263 nM.

B20: hya -40 (dsDNA)
DNA 1: B2 DNA 1 with G18C, T23G
DNA 2: B2 DNA 2 with A8C, C13G
B20 gave an IC50 [1] of 39 nM.

B21: hya -44,-43 (dsDNA)
DNA 1: B2 DNA 1 with G14T, T15G, T23G
DNA 2: B2 DNA 2 with A8C, A16C, C17A
Work on B21 yielded an IC50 [1] of 89 nM.

B22: hya -49 (dsDNA)
DNA 1: B2 DNA 1 with A9T, T23G
DNA 2: B2 DNA 2 with A8C, T22A
Work on B22 yielded an IC50 [1] of 44 nM.

B23: hya -36(T to A) (dsDNA)
DNA 1: B2 DNA 1 with T22A, T23G
DNA 2: B2 DNA 2 with A8C, A9T
B23 was tested, and the IC50 [1] was 52 nM.

B24: hyaA site, labeled 30-mer (dsDNA)
DNA 1: B2 DNA 1 with T23G
DNA 2: B2 DNA 2 with A8C
Binder B24 has a Kd [2] of 44 ± 3 nM and a Kd [3] of 34 ± 2 nM.

B25: Palindrome1 (dsDNA)
DNA 1: B3 DNA 1 with C7A, G23T
DNA 2: B3 DNA 2 with C8A, G24T
For B25, the IC50 [1] was 202 nM.

B26: hya -42 (dsDNA)
DNA 1: B2 DNA 1 with T16A, T23G
DNA 2: B2 DNA 2 with A8C, A15T
In the case of B26, the IC50 [1] is reported as 73 nM.

B27: hya -36(T to G) (dsDNA)
DNA 1: B2 DNA 1 with T22G, T23G
DNA 2: B2 DNA 2 with A8C, A9C
Binder B27 has an IC50 [1] of 16 nM.

B28: randomized hya site, labeled 30-mer (dsDNA)
DNA 1: ATCATCCGTCTTATGTTAATTATAATGGTG
DNA 2: CACCATTATAATTAACATAAGACGGATGAT
B28: no binding [4]; no binding [5].

B29: hya -42,-41 (dsDNA)
DNA 1: B1 DNA 1 with T14G, T18G
DNA 2: B1 DNA 2 with A13C, A17C
B29 showed an IC50 [1] of 300 nM.

B30: hya -41 (dsDNA)
DNA 1: B2 DNA 1 with T17A, T23G
DNA 2: B2 DNA 2 with A8C, A14T
B30 gave an IC50 [1] of 34 nM.

B31: hya -55 (A to C) (dsDNA)
DNA 1: B2 DNA 1 with A3C, T23G
DNA 2: B2 DNA 2 with A8C, T28G
In the case of B31, the IC50 [1] is reported as 394 nM.
